The target of test [1] is T1, HCV Core1-169 (HCV-1, UniProt P26664 1-169).
T1 construct: also called Solid Phase HCV Core
T1 sequence: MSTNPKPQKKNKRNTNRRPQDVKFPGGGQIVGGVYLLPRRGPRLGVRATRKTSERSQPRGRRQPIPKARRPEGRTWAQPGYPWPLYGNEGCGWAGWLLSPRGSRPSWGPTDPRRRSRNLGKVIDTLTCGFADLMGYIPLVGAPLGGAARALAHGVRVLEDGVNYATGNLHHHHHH
Put plainly: EIA, core captured by anti-domain 1 mAb.

Test [2] addresses T1, HCV Core1-169. Put plainly: SPR sandwich, C11-9 capture.
Test [3] addresses T1, HCV Core1-169. Nature of the test: EIA, coated core1-169.
The target in test [4] is HCV Core 134-171-TT peptide (ALRZ-9 peptide) (HCV-1). Nature of the test: SPR, captured mAb.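 Note: Anti-HCV Core mAbs from hybridoma supernatants held on a rabbit anti-mouse IgG CM5 surface, peptide flowed over 3 min then 4 min dissociation, duplicate concentrations.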 On the technique in general: Surface plasmon resonance follows binding to a sensor surface in real time, without labels.
In test [5] the target is T1, HCV Core1-169. Put plainly: SPR sandwich, C11-14 capture.
The target in test [6] is T1, HCV Core1-169. Put plainly: SPR sandwich, C11-3 capture.
Test [7] deals with T1, HCV Core1-169. Nature of the test: SPR sandwich, C11-7 capture.
For test [8], the target named is T1, HCV Core1-169. Nature of the test: sandwich EIA, capture 208A-293.
Test [9] concerns the target T1, HCV Core1-169. Nature of the test: sandwich EIA, capture C11-7.
For test [10], the target named is T1, HCV Core1-169. Put plainly: sandwich EIA, capture 208B-395-334.
Test [11] deals with T1, HCV Core1-169. Put plainly: sandwich EIA, capture 208A-692.
Test [12] has as its target T1, HCV Core1-169. Put plainly: sandwich EIA, capture C11-9.
The target in test [13] is T1, HCV Core1-169. Nature of the test: sandwich EIA, capture 208B-612-226.
Test [14] addresses T1, HCV Core1-169. Nature of the test: sandwich EIA, capture 208B-741.
Test [15] concerns the target HCV Core 134-171-TT peptide (ALRZ-9 peptide) (HCV-1). Put plainly: SPR, captured mAb.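 Note: Anti-HCV Core mAbs from hybridoma supernatants held on a rabbit anti-mouse IgG CM5 surface, peptide flowed over 3 min then 4 min dissociation, duplicate concentrations.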 The source holds these as a separate data set.
For test [16], the target named is T1, HCV Core1-169. Put plainly: sandwich EIA, capture 208A-557.
Test [17] has as its target T1, HCV Core1-169. Nature of the test: sandwich EIA, capture 208A-110.
Test [18] has as its target T1, HCV Core1-169. Nature of the test: sandwich EIA, NC capture mAb.
The target of test [19] is T1, HCV Core1-169. Nature of the test: sandwich EIA, capture 208B-1096.
Test [20] deals with T1, HCV Core1-169. Put plainly: sandwich EIA, capture 208A-207-271.

B1: HCV 208B-862 (antibody, V domains shown)
VH: DVQLQESGPGLVKPSQSLSLTCTVTGYSITSDYAWNWIRQFPGNKLEWMGYISYSGTTVYSPSLKSRISITRDTSKNQFFLQLNSVTIEDSATYYCGGNYWGQGTLVTVSA
VL: DVVLTQTPLSLPLSLGDQASISCRSSQTLLHSDGDTYLHWYLQKPGQSPKLLIYKLSNRFSGVPDRFSGSGSGTDFTLKISRVEAEDLGVYFCSQSTHVPYTFGGGTKLEIKR
What is called Kd is a measure of binding affinity in units of concentration. The koff is the rate constant with which the complex falls apart. As a reminder, the kon is the second-order rate constant of association. A lower kon goes with slow association. For the molecule B1, the figures for the “OD (A492)” value with HCV Core1-169 [1] and with HCV Core1-169 [3] were 1.07 OD and 0.49 OD, respectively. The expected % binding in the test with HCV Core1-169 [2] was 8.9%; with HCV Core1-169 [5] it was 12.6%; with HCV Core1-169 [6] it was 11.2%; with HCV Core1-169 [7], 15.2%. The molecule also showed a Kd in test [4] of 0.07 nM. For the same molecule, in test [4], the koff is 0.0001 s⁻¹. Further, in test [4], the kon came to 1.4e+06 M⁻¹ s⁻¹.

B2: HCV 208B-395 (antibody, V domains shown)
VH: QVQLQQSGAGLAKPGASVKMSCKASGYTFTANKMHWTKQRPGQGLEWIGYIDPSSGYTQYNHKIQDKATLTADTSSSTAYMQLSSLTFEDSAVYYCTNFAYWGQGTLVTVSA
VL: DIVLTQSPATLSVTPGDRVSLSCRASQRIYNYLHWYQQKSHESPRLLIKYASQSISGIPSRFSGSGSGTDFILTINSVETEDFGMYFCQQSNSWPLTFGAGTKLELRR
On to B2, for which the OD492 with HCV Core1-169 [8] was 0.26 OD; with HCV Core1-169 [9] it was 0.89 OD; with HCV Core1-169 [10], 0.23 OD; with HCV Core1-169 [11] it was 0.15 OD; with HCV Core1-169 [12], 0.32 OD; in the test with HCV Core1-169 [13], 0.26 OD. Besides, the OD492 in the test with HCV Core1-169 [14] is 0.21 OD; with HCV Core1-169 [16], 0.21 OD; with HCV Core1-169 [17], 0.21 OD; with HCV Core1-169 [18] it was 0.2 OD; with HCV Core1-169 [19] it was 0.23 OD; with HCV Core1-169 [20], 0.2 OD. This molecule also registered a Kd in test [15] of 0.36 nM. Besides, the koff in test [15] was found to be 0.00047 s⁻¹. In addition, the kon in test [15] was determined as 1.3e+06 M⁻¹ s⁻¹.

B3: HCV 208A-422 (antibody, V domains shown)
VH: DVQLQESGPGLVNPSQSLSLTCSVTGYSITSGYYWIWIQQSPGNKLEWMGYIKYDGGNNYSPSLKNRISIARDTSKNQCFLKLNSVTIEDTATYYCTRGSDSFDYWGQGTTLTVSS
VL: DIVLTQSPASLAVSLGQRAIISCKASQSVSFAGTNLMHWYQQKPGQQPKLLIYRASNLETGVPTRFSGSGSRTDFTLNIHPVEEDDAATYYCQQSREYYTFGGGTKLEIKR
As to B3, the figures for the “OD (A492)” value with HCV Core1-169 [1] and in the test with HCV Core1-169 [3] were 0.18 OD and 1.68 OD, respectively.

(Values after US9371374 (AbbVie / Abbott, dated 2016).)
